In article PMC4109916:
Values belong to the molecule of their own block, whether it stands above or below them.

Experiments:
[1] = target: Recombinant Protein A (SpA) (staphylococcal (species not stated)) (UniProt P38507); assay: ELISA; competition: wells coated with mKate-IgGBP or SpA; 1:4000 dIgG-HRP co-incubated with increasing concentrations of unlabeled IgG, 1 hr at room temperature, 3% BSA in PBS-T; IC50 from a one-site LogIC50 fit
[2] = target: Human IgG1 (Avastin, bevacizumab) (human)
[3] = target: Human IgG1 (Avastin, bevacizumab) (human); remark: listed apart in the source
[4] = target: Human IgG1 (Avastin, bevacizumab) (human); assay: SPR; pH 6
[5] = target: Human IgG1 (Avastin, bevacizumab) (human); assay: SPR; pH 7.4
[6] = target: hIgG1-TAMRA (labeled human IgG1) (human); assay: flow cytometry on cells; same competition experiment as a5 (1 µM hIgG1-TAMRA, MDCK hFcRn-EYFP/hβ2m cells, 1 hr at 37°C, pH 6); pair of the soluble competitor mKate-IgGBP with the labeled hIgG1 that it binds
[7] = target: mKate-IgGBP (monomeric Katushka modified at its C-terminus with the IgG-Fc binding peptide); assay: ELISA; competition: wells coated with mKate-IgGBP or SpA; 1:4000 dIgG-HRP co-incubated with increasing concentrations of unlabeled IgG, 1 hr at room temperature, 3% BSA in PBS-T; IC50 from a one-site LogIC50 fit
[8] = target: human neonatal Fc receptor hFcRn-EYFP/hβ2m on MDCK cells (human) (UniProt P55899); assay: flow cytometry on cells; competition: MDCK hFcRn-EYFP/hβ2m cells with 1 µM hIgG1-TAMRA and increasing unlabeled competitor, 1 hr at 37°C, pH 6 (HBSS, 1% ovalbumin, 50 mM MES); read-out is % hIgG1 accumulation (binding and FcRn-dependent endocytosis); pairs with the receptor on cells

Molecule: mouse IgG2b (MPC-11 isotype control) (antibody)
IC50 [1]: 54 nM

Molecule: Human IgG1 (Avastin, bevacizumab) (antibody)
IC50 [1]: 22 nM

plasma half-life of mKate-IgGBP (10 mg/kg i.v.) in hFcRn Tg mice pre-dosed with 500 mg/kg hIgG1 [2]: 8 h
fold extension of the plasma half-life of mKate-IgGBP co-dosed 1:1 mol with labeled hIgG1 in hFcRn Tg mice, against mKate-IgGBP dosed without hIgG1 [3]: 16 fold
Kd [4]: 19 nM
koff [4]: 0.0053 s⁻¹
kon [4]: 270000 M⁻¹ s⁻¹
Kd [5]: 40 nM
koff [5]: 0.0042 s⁻¹
kon [5]: 110000 M⁻¹ s⁻¹
IC50 [6]: 700 nM
Molecule: mKate-IgGBP (monomeric Katushka modified at its C-terminus with the IgG-Fc binding peptide) (designed binder)

Molecule: mouse IgG2a (CI.18 isotype control) (antibody)
IC50 [1]: 61 nM

IC50 [7]: 2.4 nM
IC50 [8]: 2800 nM
B1: Human IgG1 (Avastin, bevacizumab) (antibody, V domains shown)
VH: EVQLVESGGGLVQPGGSLRLSCAASGYTFTNYGMNWVRQAPGKGLEWVGWINTYTGEPTYAADFKRRFTFSLDTSKSTAYLQMNSLRAEDTAVYYCAKYPHYYGSSHWYFDVWGQGTLVTVSS
VL: DIQMTQSPSSLSASVGDRVTITCSASQDISNYLNWYQQKPGKAPKVLIYFTSSLHSGVPSRFSGSGSGTDFTLTISSLQPEDFATYYCQQYSTVPWTFGQGTKVEIK
